Drawing on patent US20160053007A1, this text covers IL-2 production by activated T cells, increase by TL1A, IL-4 production by activated T cells, increase by TL1A and interferon-γ production by activated T cells, increase by TL1A for 1 substance.

The target in this experiment is DR3 on mouse CD4+ T cells (mouse). Kind of experiment: cell-based or functional assay.
Chain of DR3 on mouse CD4+ T cells (mouse) (Q9QZZ6 19-201): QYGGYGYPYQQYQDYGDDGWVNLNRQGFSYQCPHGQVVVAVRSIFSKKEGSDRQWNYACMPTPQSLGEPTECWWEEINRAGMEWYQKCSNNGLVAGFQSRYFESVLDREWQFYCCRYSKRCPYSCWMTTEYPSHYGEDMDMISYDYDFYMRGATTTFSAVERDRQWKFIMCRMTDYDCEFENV

On to “recombinant mouse TL1A (from UniProt Q5UBV8 76-252) (ligand)”, for which the IL-2 production by activated T cells, increase by TL1A was less than 2 fold; the IL-4 production by activated T cells, increase by TL1A worked out at 10 fold; the interferon-γ production by activated T cells, increase by TL1A is less than 2 fold.
